Results published in patent publication US20240262922A1 (Merck KGaA, published 2024).

Legend:
AVI-GST-His6-hOX40L = target: T1, AVI-GST-His6-hOX40L (human, UniProt P23510 51-183); assay: cell-based or functional assay
T1 sequence: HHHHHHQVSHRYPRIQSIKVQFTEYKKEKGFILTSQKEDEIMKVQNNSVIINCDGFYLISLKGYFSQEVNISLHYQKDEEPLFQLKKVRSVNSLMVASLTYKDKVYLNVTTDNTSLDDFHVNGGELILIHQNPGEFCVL

[1] = target: T2, recombinant human OX40L protein (R&D Systems, cat. #1054-OX) (human, UniProt P23510 51-183); assay: SPR steady state, Biacore T200; OX40L immobilised on CM5, FcFab in solution
T2 construct: Bought soluble recombinant protein; also called rhOX40L; recombinant soluble OX40L
T2 sequence: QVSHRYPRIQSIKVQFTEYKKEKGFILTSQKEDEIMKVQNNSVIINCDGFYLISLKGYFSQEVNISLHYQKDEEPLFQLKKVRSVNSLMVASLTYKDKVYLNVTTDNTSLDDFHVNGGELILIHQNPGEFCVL
Method: Recombinant OX40L proteins (human OX40L protein, R&D systems, cat. #1054-OX; cynomolgus monkey OX40L, Novoprotein cat. #CP72) were immobilized onto Biacore CM5 sensor chips and anti-OX40L antibodies were bound to this surface at a range of concentrations. The response at steady state was measured with a Biacore T200 instrument (GE Healthcare) and plotted against the concentration of antibody and fit to a 1:1 binding model. The steady state KD was determined as the antibody concentration at a response equal to half the maximal response (Rₘₐₓ).
As with the IgG clones, binding affinity to human OX40L was determined for all twelve FcFabs using steady state affinity assay as described in section 1.1.7 of Example 1. […]

[2] = target: T2, recombinant human OX40L protein (R&D …); assay: cell-based or functional assay

Binder	OX40L neutralization/OX40-HEK Reporter IC50 (AVI-GST-His6-hOX40L)	Kd [1]	Primary T cell activation assay IC50 [2]
98C01 (FcFab) (antibody) heavy: EPKSSDKTHTCPPCPAPPVAGPSVFLFPPKPKDTLMISRTPEVTCVVVDVSHEDPEVKFNWYVDGVEVHNAKTKPREEQYNSTYRVVSVLTVLHQDWLNGKEYKCAVSNKALPSSIEKTISKAKGQPREPQVYTLPPSREEMTKNQVSLTCLVKGFYPSDIAVEWESNGQPENNYKTTPPVLDSDGSFFLYSKLTVDKSRWQQGNVFSCSVMHEALHNHYTQKSLSLSPGAGGGGSGGGGSGGGGSQVQLQESGPGLVKPSETLSLTCTVSGGSISSSSYYWGWIRQPPGKGLEWIGGIGSVDYSGNTYYKPSLKSRVTISVDTSKNQFSLKLSSVTAADTAVYHCARHRGIYFFDYWGQGTLVTVSSASTKGPSVFPLAPSSKSTSGGTAALGCLVKDYFPEPVTVSWNSGALTSGVHTFPAVLQSSGLYSLSSVVTVPSSSLGTQTYICNVNHKPSNTKVDKRVEPKSC light: SYELTQPPSVSVALGQTARITCGGNNIENKNVHWYQQKPGQAPVLVIYRDSNRPSGIPERFSGSNSGNTATLSINRAQAGDEADYYCQVWDSNTVVFGGGTKLTVLGQPKAAPSVTLFPPSSEELQANKATLVCLISDFYPGAVTVAWKADSSPVKAGVETTTPSKQSNNKYAASSYLSLTPEQWKSHKSYSCQVTHEGSTVEKTVAPTECS	5.4 nM	27.8 nM	–
98E10 (FcFab) (antibody) heavy: EPKSSDKTHTCPPCPAPPVAGPSVFLFPPKPKDTLMISRTPEVTCVVVDVSHEDPEVKFNWYVDGVEVHNAKTKPREEQYNSTYRVVSVLTVLHQDWLNGKEYKCAVSNKALPSSIEKTISKAKGQPREPQVYTLPPSREEMTKNQVSLTCLVKGFYPSDIAVEWESNGQPENNYKTTPPVLDSDGSFFLYSKLTVDKSRWQQGNVFSCSVMHEALHNHYTQKSLSLSPGAGGGGSGGGGSGGGGSQLQLQESGPGLVKPSETLSLTCTVAGASVSSSSYYWGWIRQSPGKGLEWIGTINYGGSTYHNPSLKRRVTVSVDTSKNQFSLKLTSVTAADTAVYYCARHRGIYHFDYWGQGTLVTVSSASTKGPSVFPLAPSSKSTSGGTAALGCLVKDYFPEPVTVSWNSGALTSGVHTFPAVLQSSGLYSLSSVVTVPSSSLGTQTYICNVNHKPSNTKVDKRVEPKSC light: SYELTQPLSVSVALGQTARITCGGNNIENKNVHWYQQMPGQAPVLVIYRDSNRPSGIPERFSGSNSGNTATLTINRAQAGDEADYYCQVWDSNTVVFGGGTKVTVLGQPKAAPSVTLFPPSSEELQANKATLVCLISDFYPGAVTVAWKADSSPVKAGVETTTPSKQSNNKYAASSYLSLTPEQWKSHKSYSCQVTHEGSTVEKTVAPTECS	5.7 nM	33 nM	5.3 nM
68F03 (FcFab) (antibody) chain 1: EPKSSDKTHTCPPCPAPPVAGPSVFLFPPKPKDTLMISRTPEVTCVVVDVSHEDPEVKFNWYVDGVEVHNAKTKPREEQYNSTYRVVSVLTVLHQDWLNGKEYKCAVSNKALPSSIEKTISKAKGQPREPQVYTLPPSREEMTKNQVSLTCLVKGFYPSDIAVEWESNGQPENNYKTTPPVLDSDGSFFLYSKLTVDKSRWQQGNVFSCSVMHEALHNHYTQKSLSLSPGAGGGGSGGGGSGGGGSQLQLQESGPGLVKPSETLSLTCTVSGGSIDTSSQYWAWIRQPPGKGLEWIGGIYFSGSTYQNPSLKSRVTTSVDTSKNQFSLRLSSMTAADTAVYYCARHRGIYFFDYWGQGTLVTVSSASTKGPSVFPLAPSSKSTSGGTAALGCLVKDYFPEPVTVSWNSGALTSGVHTFPAVLQSSGLYSLSSVVTVPSSSLGTQTYICNVNHKPSNTKVDKRVEPKSC chain 2: SFELTQPLSVSVALGQTARITCGGINIENKNVHYYQQKPGQAPVLVIYRDTNRPSGIPERFSGSNSGNTATLTISRAQAGDEADYYCQVWDSNTVIFGGGTKVTVLGQPKAAPSVTLFPPSSEELQANKATLVCLISDFYPGAVTVAWKADSSPVKAGVETTTPSKQSNNKYAASSYLSLTPEQWKSHKSYSCQVTHEGSTVEKTVAPTECS	5.5 nM	33.1 nM	15.6 nM
88B06 (FcFab) (antibody) chain 1: EPKSSDKTHTCPPCPAPPVAGPSVFLFPPKPKDTLMISRTPEVTCVVVDVSHEDPEVKFNWYVDGVEVHNAKTKPREEQYNSTYRVVSVLTVLHQDWLNGKEYKCAVSNKALPSSIEKTISKAKGQPREPQVYTLPPSREEMTKNQVSLTCLVKGFYPSDIAVEWESNGQPENNYKTTPPVLDSDGSFFLYSKLTVDKSRWQQGNVFSCSVMHEALHNHYTQKSLSLSPGAGGGGSGGGGSGGGGSEVQLLESGGGLVQPGGSLRLSCAASGFTFSNYAMSWVRQAPGKGLEWVSVISGSGDSTYYAESVKGRFTISRDNSKNTLYLQMTSLRAEDTAEYYCAKDRTPVYGLDVWGQGTTVTVSSASTKGPSVFPLAPSSKSTSGGTAALGCLVKDYFPEPVTVSWNSGALTSGVHTFPAVLQSSGLYSLSSVVTVPSSSLGTQTYICNVNHKPSNTKVDKRVEPKSC chain 2: SYELTQPLSVSVALGQTARISCGGNNIGRKNVHWYQQKPGQAPVLVIYGDSNRPSGIPERFSGSNSGNTATLTIGRAQAGDEADYYCQVWDSSTVFGGGTKLTVLGQPKAAPSVTLFPPSSEELQANKATLVCLISDFYPGAVTVAWKADSSPVKAGVETTTPSKQSNNKYAASSYLSLTPEQWKSHKSYSCQVTHEGSTVEKTVAPTECS	102 nM	35.5 nM	> 161 nM
89B09 (FcFab) (antibody) heavy: EPKSSDKTHTCPPCPAPPVAGPSVFLFPPKPKDTLMISRTPEVTCVVVDVSHEDPEVKFNWYVDGVEVHNAKTKPREEQYNSTYRVVSVLTVLHQDWLNGKEYKCAVSNKALPSSIEKTISKAKGQPREPQVYTLPPSREEMTKNQVSLTCLVKGFYPSDIAVEWESNGQPENNYKTTPPVLDSDGSFFLYSKLTVDKSRWQQGNVFSCSVMHEALHNHYTQKSLSLSPGAGGGGSGGGGSGGGGSEVQLVESGPGLVKPSETLSLTCTVSGVSIRSNGYYWGWIRQSPGKGLEWIGNMDYSGTYQNPSLTSRVTISGDASKNQFSLKLRSVTAADTAVYFCARERSNNWYPIDYWGQGTLVTVSSASTKGPSVFPLAPSSKSTSGGTAALGCLVKDYFPEPVTVSWNSGALTSGVHTFPAVLQSSGLYSLSSVVTVPSSSLGTQTYICNVNHKPSNTKVDKRVEPKSC light: SSELTQDPAVSVALGQTVRITCQGDSVRRFFAHWYQQKPGQAPILVISGKDTRPSGIPDRFSGSISGNTASLTITGAQAEDEADYYCNSRDSSGYLVLFGGGTKLTVLGQPKAAPSVTLFPPSSEELQANKATLVCLISDFYPGAVTVAWKADSSPVKAGVETTTPSKQSNNKYAASSYLSLTPEQWKSHKSYSCQVTHEGSTVEKTVAPTECS	4.7 nM	44.8 nM	6.1 nM
95B06 (FcFab) (antibody) chain 1: EPKSSDKTHTCPPCPAPPVAGPSVFLFPPKPKDTLMISRTPEVTCVVVDVSHEDPEVKFNWYVDGVEVHNAKTKPREEQYNSTYRVVSVLTVLHQDWLNGKEYKCAVSNKALPSSIEKTISKAKGQPREPQVYTLPPSREEMTKNQVSLTCLVKGFYPSDIAVEWESNGQPENNYKTTPPVLDSDGSFFLYSKLTVDKSRWQQGNVFSCSVMHEALHNHYTQKSLSLSPGAGGGGSGGGGSGGGGSEVQLLESGGGLVQPGGSLRLSCAASGFTFSSYAMTWVRQAPGKGLEWVSDISGSGGSTKYADSVKGRFTISRDNPKNTLYLQMNSLRAEDTAVYYCAKDLGFYSTWDTDYWGQGTLVTVSSASTKGPSVFPLAPSSKSTSGGTAALGCLVKDYFPEPVTVSWNSGALTSGVHTFPAVLQSSGLYSLSSVVTVPSSSLGTQTYICNVNHKPSNTKVDKRVEPKSC chain 2: DMQMTQSPSSLSASVGDRVTITCRASQGIRNDLDWYQQKPGKVPKRLIHAASSLQSGVPSRFSGSGSGTEFTLTISSLQPEDFVTYYCLQHNTYPWTFGQGTKLEIKRTVAAPSVFIFPPSDEQLKSGTASVVCLLNNFYPREAKVQWKVDNALQSGNSQESVTEQDSKDSTYSLSSTLTLSKADYEKHKVYACEVTHQGLSSPVTKSFNRGEC	30.8 nM	64.1 nM	38 nM
